Experimental findings from patent US20230212319A1, “NOVEL ANTIGEN BINDING DOMAINS AND SYNTHETIC ANTIGEN RECEPTORS INCORPORATING THE SAME” (University of Southern California, priority 2020, published 2023) are described below.

The subject of this experiment is RAJI cells. Kind of experiment: JNG assay, co-culture with RAJI cells. The class given is cell-based. The conditions noted are these: JNG cells expressing construct, co-culture with Raji. An outline of the steps:
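Jurkat NFAT-GFP (JNG) cells stably transduced with SARs by lentivirus, with drug selection where the construct carried a resistance gene, then co-cultured with target cells at E:T ~1:2 for ~4–18 h. % GFP-positive cells measured by FACS against parental JNG; +/- to 5+ correspond to ~5–50% GFP-positive.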

B1: 22202 (protein)
chain: MALPVTALLLPLALLLHAARPACAGHLEQPQISSTKTLSKTARLECVVSGITISATSVYWYRERPGEVIQFLVSISYDGTVRKESGIPSGKFEVDRIPETSTSTLTIHNVEKQDIATYYCALWEAQQELGKKIKVFGPGTKLIITDKQLDKQLDADVSPKPTIFLPSIAETKLQKAGTYLCLLEKFFPDVIKIHWQEKKSNTILGSQEGNTMKTNDTYMKFSWLTVPEKSLDKEHRCIVRHENNKNGVDQEIIFPPIKTDVITMDPKDNCSKDANDTLLLQLTNTSAYYMYLLLLLKSVVYFAIITCCLLRRTAFCCNGEKSRAKRSGSGATNFSLLKQAGDVEENPGPTSATMDWIWRILFLVGAATGAHSGPQVQLQESGGGLAQAGGSLRLSCAASGRTFSMGWFRQAPGKEREFVAAITYSGGSPYYASSVRGRFTISRDNAKNTVYLQMNSLKPEDTAVYYCAANPTYGSDWNAENWGQGTQVTVSSGSGGGGSGGGGSGGGGSFEAIELVPEHQTVPVSIGVPATLRCSMKGEAIGNYYINWYRKTQGNTMTFIYREKDIYGPGFKDNFQGDIDIAKNLAVLKILAPSERDEGSYYCACDTLGMGGEYTDKLIFGKGTRVTVEPRSQPHTKPSVFVMKNGTNVACLVKEFYPKDIRINLVSSKKITEFDPAIVISPSGKYNAVKLGKYEDSNSVTCSVQHDNKTVHSTDFEVKTDSTDHVKPKETENTKQPSKSCHKPKAIVHTEKVNMMSLTVLGLRMLFAKTVAVNFLLTAKLFFLRAKRSGSGVKQTLNFDLLKLAGDVESNPGPSRAHMTEYKPTVRLATRDDVPRAVRTLAAAFADYPATRHTVDPDRHIERVTELQELFLTRVGLDIGKVWVADDGAAVAVWTTPESVEAGAVFAEIGPRMAELSGSRLAAQQQMEGLLAPHRPKEPAWFLATVGVSPDHQGKGLGSAVVLPGVEAAERAGVPAFLETSAPRNLPFYERLGFTVTADVEVPEGPRTWCMTRKPGA
Turning to B1, the “NFAT-GFP ASSAY: Raji” value is “Raji (3+) (refer to approximately 5%, 10%, 20%, 30%, 40% and 50% GFP positive cells)”.

B2: 22097 (protein)
chain: MALPVTALLLPLALLLHAARPQLQLQESGPGLVKPSETLSLTCTVSGDSISSGDYYWGWIRQPPGKGLEWIGHIYYSGVTYYNPSLKSRVTISVDTSRNQFSLKLSSVTAADTAVYYCTREDSSNWRSRGQGTLVTVSSLEGQPKANPTVTLFPPSSEELQANKATLVCLISDFYPGAVTVAWKADGSPVKAGVETTKPSKQSNNKYAASSYLSLTPEQWKSHRSYSCQVTHEGSTVEKTVAPTECSGRADCGFTSESYQQGVLSATILYEILLGKATLYAVLVSALVLMAMVKRKDSRGRAKRSGSGATNFSLLKQAGDVEENPGPTSMDWIWRILFLVGAATGAHSFEVQLLESGGGLIQPGGSLRLSCAASGFTFSSHAMTWVRQAPGKGLEWVSAISGSGDYTHYADSVKGRFTISRDNSKNTVYLQMNSLRAEDSAVYYCAKDEDGGSLLGHRGQGTLVTVSSTRASTKGPSVFPLAPSSKSTSGGTAALGCLVKDYFPEPVTVSWNSGALTSGVHTFPAVLQSSGLYSLSSVVTVPSSSLGTQTYICNVNHKPSNTKVDKRVEPKSCIPEDTFFPSPESSCDVKLVEKSFETDTNLNFQNLSVIGFRILLLKVAGFNLLMTLRLWSSRAKRSGSGVKQTLNFDLLKLAGDVESNPGPSRGHMTEYKPTVRLATRDDVPRAVRTLAAAFADYPATRHTVDPDRHIERVTELQELFLTRVGLDIGKVWVADDGAAVAVWTTPESVEAGAVFAEIGPRMAELSGSRLAAQQQMEGLLAPHRPKEPAWFLATVGVSPDHQGKGLGSAVVLPGVEAAERAGVPAFLETSAPRNLPFYERLGFTVTADVEVPEGPRTWCMTRKPGA
For B2, the “NFAT-GFP ASSAY: Raji” value is “+ (refer to approximately 5%, 10%, 20%, 30%, 40% and 50% GFP positive cells)”.

B3: 22082 (protein)
chain: MALPVTALLLPLALLLHAARPQLQLQESGPGLVKPSETLSLTCTVSGDSISSGDYYWGWIRQPPGKGLEWIGHIYYSGVTYYNPSLKSRVTISVDTSRNQFSLKLSSVTAADTAVYYCTREDSSNWRSRGQGTLVTVSSLESGGGGSFEQLQLQESGPGLVKPSETLSLTCTVSGGSISSGDYYWGWIRQPPGKGLEWIGHIYYSGATYYNPSLKSRVTISVDTSRNQFSLKLSSVTAADTAVYYCTRDDSSNWRSRGQGTLVTVSSTRASTKGPSVFPLAPSSKSTSGGTAALGCLVKDYFPEPVTVSWNSGALTSGVHTFPAVLQSSGLYSLSSVVTVPSSSLGTQTYICNVNHKPSNTKVDKRVEPKSCIPEDTFFPSPESSCDVKLVEKSFETDTNLNFQNLSVIGFRILLLKVAGFNLLMTLRLWSSRAKRSGSGVKQTLNFDLLKLAGDVESNPGPSRGHMTEYKPTVRLATRDDVPRAVRTLAAAFADYPATRHTVDPDRHIERVTELQELFLTRVGLDIGKVWVADDGAAVAVWTTPESVEAGAVFAEIGPRMAELSGSRLAAQQQMEGLLAPHRPKEPAWFLATVGVSPDHQGKGLGSAVVLPGVEAAERAGVPAFLETSAPRNLPFYERLGFTVTADVEVPEGPRTWCMTRKPGA
B3: the “NFAT-GFP ASSAY: Raji” value was “+/- (refer to approximately 5%, 10%, 20%, 30%, 40% and 50% GFP positive cells)”.

B4: 22080 (protein)
chain: MALPVTALLLPLALLLHAARPQLQLQESGPGLVKPSETLSLTCTVSGDSISSGDYYWGWIRQPPGKGLEWIGHIYYSGVTYYNPSLKSRVTISVDTSRNQFSLKLSSVTAADTAVYYCTREDSSNWRSRGQGTLVTVSSLESGGGGSFEEVQLLESGGGLVQPGGSLRLSCAASGFTFSSYAMSWVRQAPGKGLEWVSSISGSGDYIYYADSVKGRFTISRDISKNTLYLQMNSLRAEDTAVYYCAKEGTGANSSLADYRGQGTLVTVSSTRASTKGPSVFPLAPSSKSTSGGTAALGCLVKDYFPEPVTVSWNSGALTSGVHTFPAVLQSSGLYSLSSVVTVPSSSLGTQTYICNVNHKPSNTKVDKRVEPKSCIPEDTFFPSPESSCDVKLVEKSFETDTNLNFQNLSVIGFRILLLKVAGFNLLMTLRLWSSRAKRSGSGVKQTLNFDLLKLAGDVESNPGPSRGHMTEYKPTVRLATRDDVPRAVRTLAAAFADYPATRHTVDPDRHIERVTELQELFLTRVGLDIGKVWVADDGAAVAVWTTPESVEAGAVFAEIGPRMAELSGSRLAAQQQMEGLLAPHRPKEPAWFLATVGVSPDHQGKGLGSAVVLPGVEAAERAGVPAFLETSAPRNLPFYERLGFTVTADVEVPEGPRTWCMTRKPGA
With B4, the “NFAT-GFP ASSAY: Raji” value is “+ (refer to approximately 5%, 10%, 20%, 30%, 40% and 50% GFP positive cells)”.

B5: 22200 (protein)
chain: MTIRLLCYMGFYFLGAGLMEADIYQTPRYLVIGTGKKITLECSQTMGHDKMYWYQQDPGMELHLIHYSYGVNSTEKGDLSSESTVSRIRTEHFPLTLESARPSHTSQYLCASSEARGLAEFTDTQYFGPGTRLTVLEDLKNVFPPEVAVFEPSEAEISHTQKATLVCLATGFYPDHVELSWWVNGKEVHSGVCTDPQPLKEQPALNDSRYCLSSRLRVSATFWQNPRNHFRCQVQFYGLSENDEWTQDRAKPVTQIVSAEAWGRADCGFTSESYQQGVLSATILYEILLGKATLYAVLVSALVLMAMVKRKDSRGRAKRSGSGATNFSLLKQAGDVEENPGPTSATMDWIWRILFLVGAATGAHSGPQVQLQESGGGLAQAGGSLRLSCAASGRTFSMGWFRQAPGKEREFVAAITYSGGSPYYASSVRGRFTISRDNAKNTVYLQMNSLKPEDTAVYYCAANPTYGSDWNAENWGQGTQVTVSSGSGGGGSGGGGSGGGGSFEAQTVTQSQPEMSVQEAETVTLSCTYDTSESDYYLFWYKQPPSRQMILVIRQEAYKQQNATENRFSVNFQKAAKSFSLKISDSQLGDAAMYFCAYRSAVNARLMFGDGTQLVVKPNTRIQNPDPAVYQLRDSKSSDKSVCLFTDFDSQTNVSQSKDSDVYITDKCVLDMRSMDFKSNSAVAWSNKSDFACANAFNNSIIPEDTFFPSPESSCDVKLVEKSFETDTNLNFQNLSVIGFRILLLKVAGFNLLMTLRLWSSRAKRSGSGVKQTLNFDLLKLAGDVESNPGPSRGHMTEYKPTVRLATRDDVPRAVRTLAAAFADYPATRHTVDPDRHIERVTELQELFLTRVGLDIGKVWVADDGAAVAVWTTPESVEAGAVFAEIGPRMAELSGSRLAAQQQMEGLLAPHRPKEPAWFLATVGVSPDHQGKGLGSAVVLPGVEAAERAGVPAFLETSAPRNLPFYERLGFTVTADVEVPEGPRTWCMTRKPGA
As for B5, the “NFAT-GFP ASSAY: Raji” value was “+ (refer to approximately 5%, 10%, 20%, 30%, 40% and 50% GFP positive cells)”.

B6: 22056 (protein)
chain: MALPVTALLLPLALLLHAARPQLQLQESGPGLVKPSETLSLTCTVSGDSISSGDYYWGWIRQPPGKGLEWIGHIYYSGVTYYNPSLKSRVTISVDTSRNQFSLKLSSVTAADTAVYYCTREDSSNWRSRGQGTLVTVSSLEGSPIKTDVITMDPKDNCSKDANDTLLLQLTNTSAYYMYLLLLLKSVVYFAIITCCLLRRTAFCCNGEKSRAKRSGSGATNFSLLKQAGDVEENPGPTSMDWIWRILFLVGAATGAHSFEVQLVESGGGVVQPGRSLRLSCAASGFSFSGYGMHWVRQAPGKGLEWVAYISYDGSNKYYADSVKGRFTISRDNSKNTLYLQMNSLRAEDTAVYYCAKDPAWGLRLGESSSYDFDIWGQGTMVTVSSTRDKTHTCPPCPAGRADCGFTSESYQQGVLSATILYEILLGKATLYAVLVSALVLMAMVKRKDFRAKRSGSGATNFSLLKQAGDVEENPGPSRGHMTEYKPTVRLATRDDVPRAVRTLAAAFADYPATRHTVDPDRHIERVTELQELFLTRVGLDIGKVWVADDGAAVAVWTTPESVEAGAVFAEIGPRMAELSGSRLAAQQQMEGLLAPHRPKEPAWFLATVGVSPDHQGKGLGSAVVLPGVEAAERAGVPAFLETSAPRNLPFYERLGFTVTADVEVPEGPRTWCMTRKPGA
As for B6, the “NFAT-GFP ASSAY: Raji” value is “+/- (refer to approximately 5%, 10%, 20%, 30%, 40% and 50% GFP positive cells)”.

B7: 22069 (protein)
chain: MALPVTALLLPLALLLHAARPQLQLQESGPGLVKPSETLSLTCTVSGDSISSGDYYWGWIRQPPGKGLEWIGHIYYSGVTYYNPSLKSRVTISVDTSRNQFSLKLSSVTAADTAVYYCTREDSSNWRSRGQGTLVTVSSLEGGGGSGGGGSGGGGSVEIQNPDPAVYQLRDSKSSDKSVCLFTDFDSQTNVSQSKDSDVYITDKCVLDMRSMDFKSNSAVAWSNKSDFACANAFNNSIIPEDTFFPSPESSCDVKLVEKSFETDTNLNFQNLSVIGFRILLLKVAGFNLLMTLRLWSSSSRAKRSGSGVKQTLNFDLLKLAGDVESNPGPTSMDWIWRILFLVGAATGAHSFEVQLLESGGGLIQPGGSLRLSCAASGFTFSSHAMTWVRQAPGKGLEWVSAISGSGDYTHYADSVKGRFTISRDNSKNTVYLQMNSLRAEDSAVYYCAKDEDGGSLLGHRGQGTLVTVSSTRIQNPDPAVYQLRDSKSSDKSVCLFTDFDSQTNVSQSKDSDVYITDKCVLDMRSMDFKSNSAVAWSNKSDFACANAFNNSIIPEDTFFPSPESSCDVKLVEKSFETDTNLNFQNLSVIGFRILLLKVAGFNLLMTLRLWSSRAKRSGSGVKQTLNFDLLKLAGDVESNPGPSRGHMTEYKPTVRLATRDDVPRAVRTLAAAFADYPATRHTVDPDRHIERVTELQELFLTRVGLDIGKVWVADDGAAVAVWTTPESVEAGAVFAEIGPRMAELSGSRLAAQQQMEGLLAPHRPKEPAWFLATVGVSPDHQGKGLGSAVVLPGVEAAERAGVPAFLETSAPRNLPFYERLGFTVTADVEVPEGPRTWCMTRKPGA
Turning to B7, the “NFAT-GFP ASSAY: Raji” value was “+ (refer to approximately 5%, 10%, 20%, 30%, 40% and 50% GFP positive cells)”.
